For data set [1], the target named is T1, Nsp8 (SARS-CoV-2 (taxid 2697049), UniProt P0DTD1 3943-4140). In words: EMSA; split bands. The settings on record: protein: recombinant, tags: N-terminal His6-TEV, cleaved, single strand.
Data set [2] deals with T1, Nsp8. In words: SEC-MALS-SAXS; 1:1 complex, high affinity. The note with it: protein: recombinant; tags: N-terminal His6-TEV, cleaved; label: 32P in EMSA; none in SEC; single strand.
The target of another data set is Nsp8;Nsp12 (RdRp) (SARS-CoV-2 (taxid 2697049);SARS-CoV-2 …, UniProt P0DTD1;P0DTD1 3943-4140;4393-5324, |). In words: SEC-MALS-SAXS; excess RNA; low or nonexistent binding. The settings on record: protein: recombinant;recombinant, tags: N-terminal His6-TEV, cleaved;N-terminal His6-TEV, copies: 1;1.
Data set [3] addresses T1, Nsp8. In words: SEC-MALS-SAXS. The note with it: protein: recombinant; tags: N-terminal His6-TEV, cleaved.

Results on four molecules are retold here after article PMC8238635.

Take CAUGCUACGCGUAGCAUGCUACGCGUAGCAUG (ssRNA) [long ssRNA without poly-U 5' end]: in the data set with Nsp8 [1] (label: 32P), the binding result was “binds”.

Consider CAUGCUACGCGUAGCAUGCUACGCGUAG (ssRNA) [short ssRNA (28 bases)], for which, in the data set with Nsp8 [1] (label: 32P in EMSA, none in SEC), the binding result is recorded as “binds”. Consider UUUUCAUGCUACGCGUAGCAUGCUACGCGUAGCAUG (ssRNA) [long ssRNA (36 bases)], for which, in the data set with Nsp8 [2], the binding result is on record as “binds”.

B1: dsRNA (long ssRNA paired to short ssRNA) (dsRNA)
RNA 1: UUUUCAUGCUACGCGUAGCAUGCUACGCGUAGCAUG
RNA 2: CAUGCUACGCGUAGCAUGCUACGCGUAG
As to B1, the binding result was “no binding” with Nsp8;Nsp12 (RdRp) and “binds” in the data set with Nsp8 [3].
